Several values for one entry are separate records, joined by “and”; a condition that tells them apart may be missing. Equal entries are not always repeated.

Among the data in PMC12607630, “ZapC crosslinks FtsZ filaments through a dual-binding mechanism modulated by the intrinsically disordered linker of FtsZ in Escherichia coli” (mBio, 2025) are Kd values, retold here.

The target of the test is T1, FtsZ (untagged, wild type) (Escherichia coli, UniProt P0A9A6 1-383).
T1 construct: also called wild-type FtsZ; source: E. coli BL21(DE3), plasmid pLY17, purified (Ni-NTA); 6×His-SUMO tag removed with Ulp1; not shown: 6×His-SUMO, N-terminal, cleaved
T1 sequence (looked up): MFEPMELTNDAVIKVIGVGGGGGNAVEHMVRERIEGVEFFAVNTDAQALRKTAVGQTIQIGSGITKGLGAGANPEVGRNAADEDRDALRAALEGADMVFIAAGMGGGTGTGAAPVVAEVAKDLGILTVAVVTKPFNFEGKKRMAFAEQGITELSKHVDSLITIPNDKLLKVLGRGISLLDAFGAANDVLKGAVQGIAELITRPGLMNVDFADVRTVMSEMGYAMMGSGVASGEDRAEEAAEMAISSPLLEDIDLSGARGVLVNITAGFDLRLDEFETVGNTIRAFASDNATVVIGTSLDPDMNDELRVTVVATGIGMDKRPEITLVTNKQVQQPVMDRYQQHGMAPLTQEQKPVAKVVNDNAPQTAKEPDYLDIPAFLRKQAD
The test can be described thus: BLI; 6×His-ZapC or its mutants (0.5 µM) loaded on Ni-NTA biosensors, untagged FtsZ or its variants in solution; Octet-Red96, 30°C, 1× Pol buffer (50 mM HEPES-NaOH pH 6.8, 50 mM KCl, 10 mM MgCl2); apparent Kd from the signal at the end of association against concentration, one-site fit; three repeats with mean (X) and SD. The following applies: both partners purified. A general note: BLI is a label-free optical method that tracks binding on a fibre tip over time.

B1: 6×His-ZapC (natural protein)
chain: not shown
notes: ZapC, FtsZ-associated protein of Escherichia coli; Construction of pSD323 is not described; also called His-tagged ZapC; source: E. coli, plasmid pSD323 (pQE80, Plac::6×His-ZapC), purified (Ni-NTA); not shown: His6, N-terminal, kept
Consider B1, for which the Kd was 377 nM and 395 nM and 488 nM and 420 nM.
